Assay results as given in doi:10.1101/2021.06.28.21259671.

Tests used:
[1] = biological target: chimeric secretory component (CSC) of the polymeric immunoglobulin receptor (rabbit/human chimera); experiment: lateral flow assay
[2] = biological target: chimeric secretory component (CSC) of the polymeric immunoglobulin receptor (rabbit/human chimera); experiment: SEC

Row | Substance | limit of detection [1] | stoichiometry N [2]
1 | CB6-dIgA1 (dimeric IgA1 form of the SARS-CoV-2 specific monoclonal antibody CB6, with J chain) | 0.123 µg/mL | 
2 | CB6-dIgA2 (dimeric IgA2 form of the SARS-CoV-2 specific monoclonal antibody CB6, with J chain) | 0.128 µg/mL | 
3 | chimeric secretory component (CSC) of the polymeric immunoglobulin receptor |  | 2
